Target: mLight (rat)
Conditions: scale: % ΔF/Fo

[D-Ala^2, N-MePhe^4, Gly-ol]-enkephalin (peptide)
sensor fluorescence response (ΔF/Fo) in HEK293 cells, 500 nM to 100 μM DAMGO: 9.06
